{
  "source": "patent US20230212217A1",
  "target": "full domain protein A ligand (immobilised on resin) (UniProt P38507)",
  "test": "protein A affinity chromatography, pH gradient elution, POROS MabCapture A Select (Example 5-4)",
  "data": [
    {"substance": "GLP-1-Fc (from UniProt P01275 98-128) (Fc fusion)", "values": [
      {"measurement": "Peak 1 End pH (elution)", "value": 3.95, "unit": "pH"},
      {"measurement": "Peak 1 start pH (elution)", "value": 4.17, "unit": "pH"}
    ]}
  ]
}
